# Results reported in PMC3744803, “A continuous fluorescence assay for the characterization of Nudix hydrolases” (Analytical Biochemistry, 2013).
# B1: DR_1025 (Deinococcus radiodurans R1 = ATCC 13939 = DSM 20539) (protein)
# chain: MEHDERTHVPVELRAAGVVLLNERGDILLVQEKGIPGHPEKAGLWHIPSGAVEDGENPQDAAVREACEETGLRVRPVKFLGAYLGRFPDGVLILRHVWLAEPEPGQTLAPAFTDEIAEASFVSREDFAQLYAAGQIRMYQTKLFYADALREKGFPALPV
# B2: MM_0920 (Methanosarcina mazei Go1) (protein)
# chain: MNLEKPYIISVYALIRNEKGEFLLLRRSENSRTNAGKWDLPGGKVNPDESLKEGVAREVWEETGITMVPGDIAGQVNFELTEKKVIAIVFDGGYVVADVKLSYEHIEYSWVSLEKILGMETLPAYFRDFFERFDRENKKPSKLFI
# B3: NudD (Escherichia coli K-12) (protein)
# chain: MFLRQEDFATVVRSTPLVSLDFIVENSRGEFLLGKRTNRPAQGYWFVPGGRVQKDETLEAAFERLTMAELGLRLPITAGQFYGVWQHFYDDNFSGTDFTTHYVVLGFRFRVSEEELLLPDEQHDDYRWLTSDALLASDNVHANSRAYFLAEKRTGVPGL
# B4: MutT (Escherichia coli K-12) (protein)
# chain: MKKLQIAVGIIRNENNEIFITRRAADAHMANKLEFPGGKIEMGETPEQAVVRELQEEVGITPQHFSLFEKLEYEFPDRHITLWFWLVERWEGEPWGKEGQPGEWMSLVGLNADDFPPANEPVIAKLKRL
# Legend:
# [1] = substrate: Nc1nc2c([nH]c(=O)n2[C@H]2C[C@H](O)[C@@H](COP(=O)(O)OP(=O)(O)OP(=O)(O)O)O2)c(=O)[nH]1; assay: continuous fluorescence Pi-sensor (PBP-MDCC) assay; format: biochemical, Deinococcus radiodurans; conditions: pH 7.6, 37 °C, 10 mM Tris-HCl, 1 mM MgCl2, no coupling phosphatase
# Text: (§1) continuous fluorescence Pi-sensor (PBP-MDCC) assay on DR_1025
# [2] = substrate: Nc1nc2c([nH]c(=O)n2[C@@H]2O[C@H](CO[P@@](=O)(O)O[P@@](=O)(O)OP(=O)(O)O)[C@@H](O)[C@H]2O)c(=O)[nH]1; assay: continuous fluorescence Pi-sensor (PBP-MDCC) assay; format: biochemical, Deinococcus radiodurans; conditions: pH 7.6, 37 °C, 10 mM Tris-HCl, 1 mM MgCl2, no coupling phosphatase
# Text: as §1
# [3] = substrate: Nc1ncnc2c1[nH]c(=O)n2[C@H]1C[C@H](O)[C@@H](COP(=O)(O)OP(=O)(O)OP(=O)(O)O)O1; assay: continuous fluorescence Pi-sensor (PBP-MDCC) assay; format: biochemical, Methanosarcina mazei; conditions: pH 7.6, 37 °C, 10 mM Tris-HCl, 1 mM MgCl2, PPase coupling
# Text: (§2) continuous fluorescence Pi-sensor (PBP-MDCC) assay on MM_0920
# [4] = substrate: Nc1nc2c([nH]c(=O)n2[C@H]2C[C@H](O)[C@@H](COP(=O)(O)OP(=O)(O)OP(=O)(O)O)O2)c(=O)[nH]1; assay: continuous fluorescence Pi-sensor (PBP-MDCC) assay; format: biochemical, Methanosarcina mazei; conditions: pH 7.6, 37 °C, 10 mM Tris-HCl, 1 mM MgCl2, PPase coupling
# Text: as §2
# [5] = substrate: Nc1nc2c(ncn2[C@@H]2O[C@H](COP(=O)(O)OP(=O)(O)O[C@H]3O[C@H](CO)[C@@H](O)[C@H](O)[C@@H]3O)[C@@H](O)[C@H]2O)c(=O)[nH]1; assay: discontinuous Fiske-SubbaRow (malachite green phosphate) assay; format: biochemical, Escherichia coli; conditions: pH 8.5, 37 °C, 1 mM MgCl2, APase coupling
# Text: discontinuous Fiske-SubbaRow (malachite green phosphate) assay on NudD
# [6] = substrate: Nc1nc2c([nH]c(=O)n2[C@H]2C[C@H](O)[C@@H](COP(=O)(O)OP(=O)(O)OP(=O)(O)O)O2)c(=O)[nH]1; assay: continuous fluorescence Pi-sensor (PBP-MDCC) assay; format: biochemical, Escherichia coli; conditions: pH 7.6, 37 °C, 10 mM Tris-HCl, 1 mM MgCl2, PPase coupling, alpha-beta cleavage
# Text: (§3) continuous fluorescence Pi-sensor (PBP-MDCC) assay on MutT
# [7] = substrate: Nc1nc2c([nH]c(=O)n2[C@@H]2O[C@H](CO[P@@](=O)(O)O[P@@](=O)(O)OP(=O)(O)O)[C@@H](O)[C@H]2O)c(=O)[nH]1; assay: continuous fluorescence Pi-sensor (PBP-MDCC) assay; format: biochemical, Escherichia coli; conditions: pH 7.6, 37 °C, 10 mM Tris-HCl, 1 mM MgCl2, PPase coupling
# Text: as §3
protein,measurement,setting,value
B1,Km,[1],26 ± 1 µM
same,kcat,[1],0.18 ± 0.01 s⁻¹
same,kcat/Km,[1],4400 ± 100 M⁻¹ s⁻¹
same,Km,[2],22 ± 5 µM
same,kcat,[2],0.13 ± 0.01 s⁻¹
B2,Km,[3],12 ± 3 µM
same,kcat,[3],0.00096 ± 8e-05 s⁻¹
same,kcat/Km,[3],78 ± 12 M⁻¹ s⁻¹
same,Km,[4],13 ± 3 µM
same,kcat,[4],(1.9 ± 0.2) × 10^−3 s^−1
B3,Km,[5],220 ± 60 µM
B4,Km,[6],0.28 ± 0.03 µM
same,Km,[7],0.9 ± 0.2 µM
same,kcat,[7],11.2 ± 0.9 s⁻¹
